Assay results from patent US20160361384A1, “COSMETIC USE OF DERMICIDIN, OR ANALOGUES OR FRAGMENTS THEREOF, FOR THE PREVENTION AND/OR TREATMENT AND DIAGNOSIS OF OILY SKIN AND AESTHETIC SKIN DISORDERS ASSOCIATED THEREWITH” (L'OREAL, priority 2013, published 2016).
Ends that are not written are not given here.

Tested on: P. acnes ATCC 6919
Format: cell-based, Propionibacterium acnes
Details: for MIC in μg/ml P. acnes: P. acnes ATCC 6919, 48 h incubation, optical density at 620 nm, concentration range 5 to 100 μg/ml, triplicate
Protocol: A micromethod was developed in a microplate.
The test principle is based on bringing decreasing concentrations of antimicrobial peptide (DCD-1L) into contact with an identical inoculum of P. acnes in a culture medium conducive to the growth of P. acnes. After incubation of the microplate for 48 h with the P. acnes strain, the optical density of the sample (620 nm) is measured and the results are expressed as percentage growth calculated relative to a growth control without antimicrobial peptide (negative control).
In addition, the inoculum is also brought into contact with triclosan in order to have a positive control.
The minimum inhibitory concentration or MIC is the lowest concentration of antibiotic that is sufficient to inhibit, in the laboratory, i.e. in vitro, the growth of a bacterial strain (bacterial colony).
The concentration range chosen ranged from 5 to 100 μg/ml.
Each concentration was tested in triplicate.
The inhibitory activity of the peptides was evaluated on the following microorganism: • P. acnes ATCC 6919 (Gram+bacterium)

Molecule	MIC in μg/ml P. acnes	growth of P. acnes (in the presence of a low concentration of the peptide)
SSLLEKGLDGAKKAVGGLGKLGKDAVEDLESVGKGAVHDVKDVLDSVL [Dermcidin (DCD1L)]	<5 µg/mL	greatly inhibited
RNASE 7: antimicrobial peptide RNASE 7, Human Plv extraction (heel horn) (protein, UniProt Q9H1E1 29-156, looked up) Ribonuclease 7: KPKGMTSSQWFKIQHMQPSPQACNSAMKNINKHTKRCKDLNTFLHEPFSSVAATCQTPKIACKNGDKNCHQSHGAVSLTMCKLTSGKHPNCRYKEKRQNKSYVVACKPPQKKDSQQFHLVPVHLDRVL	>100 µg/mL	–
Lacritin: antimicrobial peptide Lacritin, synthesized by hybrogenics Ref: Hgx 2238v1 (peptide, UniProt Q9GZZ8 20-138, looked up) Extracellular glycoprotein …: EDASSDSTGADPAQEAGTSKPNEEISGPAEPASPPETTTTAQETSAAAVQGTAKVTSSRQELNPLKSIVEKSILLTEQALAKAGKGMHGGVPGGKQFIENGSEFAQKLLKKFSLLKPWA	100 µg/mL	–
Recombinant human S100A7: recombinant human S100A7, Interchim (Protera), folding verified by NMR, batch EN00510-23/24/25 (protein, UniProt P31151 2-101, looked up) Protein S100-A7: SNTQAERSIIGMIDMFHKYTRRDDKIEKPSLLTMMKENFPNFLSACDKKGTNYLADVFEKKDKNEDKKIDFSEFLSLLGDIATDYHKQSHGAAPCSGGSQ	>100 µg/mL	–
